Molecular target: preformed TPX2-NLS - importin α ΔIBB complex (mouse) (UniProt A2APB8)
Assay: pull-down; competition: GST-TPX2 NLS on magnetic glutathione beads first incubated with importin α ΔIBB, washed, then increasing concentrations of CFDP1 proteins in transfer buffer, 1 h at 4°C; SDS-PAGE with Coomassie stain or immunoblot

With “CFDP1 basic C-terminal fragment (aa 150-295), HIS tagged (from UniProt O88271 150-295) (domain or fragment)” the percent decrease of TPX2 bound importin α was 11%.
